Results published in the nanobody polyreactivity screen of Harvey et al. (2022).

Assay: yeast display, Sf9 membrane polyspecificity reagent, FACS + sequencing; frameworks hold sequencing errors
Summary of the method: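 Polyreactivity labels are assigned by the sorting gate from which each nanobody was recovered. The gates were low and high (top ~1%), set on anti-HA fluorescence for expression and streptavidin fluorescence for reagent binding. Before sorting, galactose-induced (36–48 hours) yeast display cells were stained for 1 hour at 4 °C with 10% biotinylated, detergent-solubilized Sf9 membrane reagent.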

Sequence | polyreactivity (PSR sort gate)
QVQLGESGGGLVQAGGSLRLSCAASGGTFYYYAMGWYRHAPGKERELVATISYSGASTYYADSVKGRFTISRDNAKNTVYLQRNSLKPEDTAVYYCNARPYNHRYRAWMDYWGQGTQVTVSS | high polyreactivity
QVQLVESGGGLVQAGGRLRLSCAASGRIFPDNTMGWYRQAPGKERELVAVITYSGGSTYYADSVKGRFTISRDNAKNTVYLQMNSLKPEDTAVYYCAARDYYIWFAEVDYWGQGTQVTVSS | low polyreactivity
QVQLVESGGGLVQAGGSLRLSCAASGSTFSPYAMGWYRQAPGKDRELVAAISYDGASTYYADSVKGRFTISRDNAKNTVYLQMISLKPEDTAVYYCAADYFRSYEGTYWVVASYYYWGQGTQVTVSS | low polyreactivity
QVQLVESGGGLVQAGGSLRLSCAASGSISFINAIGWYRQATGKERELVAAISGSGGSTYYADSVKGRFTISRDNAKNTVFLQMNSLKPEDTAVYYCAVPLPSRIYGYWGQGTQVTVSS | low polyreactivity
QVQLVESGGGLVQAGGSLRLSCAASGSTSVQYAKGWYRQAPGKERELVAAIDRSGGSTSYADSVKGRFTISRDNAKNTVYLQMNSLKPEDTAVYYCNADPVRSTYSYDYWGLGTQVTVSS | low polyreactivity
QVQLQESGGGLVQAGGSLRLSCAASGTIFWLWAMGWYCPAPGKERELVASISSGGTTYHADSVKGRFTISRDNAKNTVYLQMNSLKPEDTAVYYSAAFYVATAKLGYWGQGSQVTVSS | low polyreactivity
QVQLVESGGGLVQAGGSLRLSCAASGRTFRLYAMGWYRQAPGKERELVAAITENGGSTYYADSVKGRFTISRDNAKNTVYLQMTSLKPEDTAVYYCAAKRYSRYNYWGQCTQVTVSS | high polyreactivity
QVQLVESGGGLVQAGGSLRFSCAASGSTFHRYVMGWYRQAPGKERELVADINSTGGSTYYADSVKGRFTISRDNAKNTVYLQMNSLKPEDTAVYYCARVTRRGPGFSTLYSRYDYWGQGTQVNVSS | low polyreactivity
QVQLVESGGGLVQAGGSLRISCVASARTFYRYAMGWYRQAPGKERELVAVITRGGSTYYADSVKGRFTISRDNAKNPVYLQMNSLKPEDTAVYFCNADGRVQRKYDYWGQGTQVTVSS | high polyreactivity
QVQLVESGGGLVQAGGSLRLSCAASGRTLPYYAMGWYRQAPGKERELVATISSRGGSTYYADSVKGRFTISRDNAKNTVYLQMNSLKPEDTAVYYCAARGNTPRTRRYGYWGQGTQVTVSS | high polyreactivity
QVQLVESGGGLVQAGGSLRLSCAASGRTFSGYAMGWYRPAPGKERELVATISSGGRTNYADSVKGRFTISRDNAKNTVYLQMISLKPEDTAVYYCNVRWWGRGPWSDYWGQGTQVTVSS | high polyreactivity
QVQLVESGGGLVQAGGSLRLSCAASGFILGLNAMGWYRQAPGKEREFVADISWSGDSTYYADSVKGRFTISRDNAKNTVYLQMNSLKPEDTAVYYCAADPYYNWCYYYWGQGTQVTVSS | low polyreactivity
QVQLVESGGGLVQAGGSLRLSCAASGFIFRPYAMGSYRQAPGKERELVAAISYGDGITYYADSVKGRFTISRDNAKNTVYLQMNSLKPEDTAVYYCAAEYVSHFSGYRYDYWGQGTQVTVSS | low polyreactivity
HVQLVESGGGLVQAGGSLRLSCAASGIIFQRNAMGWYRQAPGKERELVAPISYSDGSTYYADSVKGRFTISRDNAKNTVYLQMNSLKPEDTAVYYCAARRFGRLALYFRFDYWGQGTQVTVSS | low polyreactivity
QVQLVESGGGLVQAGGSLRLSCAASGSIFDTNAMRWYRQAPGKERELVAAISFSGVRTYYEDSVKGRFTISRYNAKNTVSLQMYSLKPEDTAVYYCAAESGKYLESRYRYYTRYYYWGQGTEVTVSS | high polyreactivity
QVQLVESGGGLVQAGGSLRLSCAASGFTCSQNAMGWYRQAPGKERELVAAITGHGGSTYYADSVKGRFTISRDNAKNTVYLQMNSLKPEDTAVYYCAADVYAVHAPQSDYWTKYDYWGQGTQVTVSS | low polyreactivity
QVQLVESGGGLVQAGGSLRLSCAASGSIFYWYAMGWYRQAPGKERELVAAISGSGGTTYYADSVKGRFTISRDNAKNTVYLQMNSLKPEDTAVYYCATRGWYLGSRGYRTRYGYWGQGTQVTVSS | high polyreactivity
QVQLVESGGGLVQAGGSLRLSCAASGRTFGWYAMGWYRQAPGKERELVATITRGGSTYYADSVKGRFTISRDNAKNTVYLQMNSLKPEDTAVYYCNARRYLWLRRYDYWGQGTQVTVSS | high polyreactivity
QVQLVDSGGGLVQAGGSLRLSCAASGRTFPSYGMGWYRQAPGKERELVAPITGGGSTYYADSVKGRFTISRDNAKNTVYLQINSLKPEDTAVYYCAKRPYYNRHYHYRSKYDYWGLGTQVTVSS | high polyreactivity
QVQLVESGGGLVQAGGSLRLSCAASGSTFYTYDMGWYRQAPGKERELVASITSGGSTNYADSVKGRFTISRDNAKNTVYLQMNSLKPEDTAVYYCAVGTYTIYSGTLYDYKYYWGQGTQVTVSS | low polyreactivity
QVQLVESGRGLVQAGGSLRLICAASRSIFSYNAMGWYRQAPGKERELVAAIRRGGGTYYADSVKGRFTISRDNAKNTVYLQMISLKPEDTAVYYCNAVRGNNFLGDGYWGLGTQVTVSS | high polyreactivity
QVQLVESGGGLVQAGGSLRLSCAASGSTFPVYAMGWYRQAPGKERELVASISSGADTNYADSVKGRFTISRDNAKNTVYLQMNSLKPEDTAVYYCAATVPLRTIRPRSYGYWGQGTQVTVSS | low polyreactivity

Sequence | polyreactivity (PSR sort gate)
QVQLVESGGGLVQAGGTLRLSCAPSGSIFTFYAMGWYRQAPGKERELVAAITRSGGSTYYADSVKGRFTISRDNAKNTVYLQMNSLKPEDTAVYYCAKDPSSYVTYRYYYWGQGSQVTVSS | low polyreactivity
QVQLVESGGGLVQAGGSLRLSCAASGLIFTYYAMGWYRPAPGKERELVASINYSGGSTYYADSVKGRFTISRDNAKNSVYLHMNSLKPEDTAVYYCAARRVTQTEGPMGYWGQGTQVTVSS | low polyreactivity
QVQLVESGGGLVQAGGSLRLSCAASGFIFRRNAMGWYRQAPGKERELVAAISRSGGRTYYADSVKGRFTISRDNAKNTVYLQMNSLKPEDTAVYYCAAEYTDKYEYWGQGTQVTVSS | high polyreactivity
QVQLEESGGGLVQAGGSLRLSWAASGSTFQSYAMGWYRQAPGKERELVAVIDSGGRTYYADSVKGRFTISRDNAKNTVYLQMNSLKPEDTAVYYCATVPGYSLYDLIVYWGQGTQVTVSS | high polyreactivity
QVQLEESGGCLVQAGGSLRLSCAATGITFYLYAMGWYRHAPGKERELVAAINSGGSTSYADSVKGRFTISRDNAKNTVYLQMNSLKTEDTADYYCNKLFLKFWGHQYGYWGQGTQVTVSS | high polyreactivity
QVQLVESGGGLVQARGSLRLSCAASGSTFSYYTMGWYRQAPGKERELVATISRRGASTYYADSVKGRFTISRDNAKNTVYLQMHSLKPEDTAVYYCAKSYYYGRSATRPEYDYWGQGTQVTVSS | high polyreactivity
QVQLVESGGGLVQAGGSLRLSCAASGRTFSIYAMGWYRQAPVKERELVAAISNGGRTKYADSVKGRFTISRDNAKNTVSLQMNSLKPEDTAVYYCAKRTYSRKFRGAYNYWGQGTQVTVSS | high polyreactivity
QVQLVESGGGLVQAGGSLRLSCAASGRTFGNYAMGWYRQAPGTERELVASITYTVGNTYYADSVKGRFTISRDNAKNTVYIQMNSLKPEDTAVYYCAADGFYLQFYHYDYWGQGTQVTVSS | low polyreactivity
QDQLVESGGGLVQAGGSLRLICAASGRTFGSYTMGWYRQAPGKERELVAAITSGGRTNYADSVKGRFTISRDNAKNTVYLQMNSLKPEDTAVYYCAAGWRGGRYRYFAYDYWGQGTQVTVSS | high polyreactivity
QVQLVESAGGLVQAGGSLRLSCAASGRTSDGYAMGWSRQAPGKERELVAGITEGGGDTYYADSVKGRFTISRDNAKNTVYLQMNSLKTEDTAVYYCAKDLRRYLSWWYRYPYDYWGQGTQVTVSS | low polyreactivity
QVQLVESGGGLVQAGGSLRLSCAASGRIFRSIAMGWYRQSPGKERELVAVINSDDSTYYADSVKGRFTISRDNAKNTVYLQMNSLKPEDTAVYYCAAEPQYTRHMDSWGQGTQVTVSS | low polyreactivity
QDQLVESGGGLVQAGGSLRLSCAASGRTFNGYAMGWYRQAPGKDRELVARITYRGGGTYYADSVKGRFTISRDNAKNTVYLQMNILKTEDTAVYYCNARGVQYRYYYWGQGTQVTVSS | high polyreactivity
QVQLVESGGGLVQAGGSLRLSCAASGITYGIYSMGWYRQAPGKERELVAAIDGSDGSTYYADSVKGRFTISRDNAKNTVYLQMNSLKPEDTAVYYCNADTGGYYVTGSYLYNEYDYWGQGTQVTVSS | low polyreactivity
QVQLVESGGGLVQAGGSLRLSCAASGFTFSTYAMGWYRQAPGKERELVAAISGSGGRTYYADSVKGRFKISRDNAKNTVYLQMNSLKPEDTAVYYCAALTYSTVLGFDYWGQGTQVTVSS | high polyreactivity
QVQLVESGGGLVQAGGSLRLSCAASGFTFRYYAMGWYRQAPGKERELVAAISYNGGSTYYADSVKGRFTISRDNAKNTVYLQMNSLKPEDTAVYYCAADGGRRFGYWGQGTQVTVSS | high polyreactivity
QVQLVESGGGLVQAGGSLRLSCAASGFTFGGYAMGWYRQAPGKERELVAAISRSGGSTSYADSVKGRFTISRDNAKNTVYLQMNSLKPEDTAVYYCAAKFFRNTYSYGMDYWGLGTQVTVSS | high polyreactivity
QVQLVESGGGLVQAGGSLRLSCAASGIIFVAYAMGWYRPAPGKERELVAAITKSGVRTYYADSVKGRFTISRGNAKNTVYLQMNSLKPEDTAVYYCAADRGVGVYYWGQGTQATVSS | high polyreactivity
QVQLVESGGGLVQAGGSLRLSCAASGSIFYRYAMGWYRQAPGKERELVAAINDSGGGTYYADSVKGRFTISRDNAKNTVYLQMNSLKPEDTAVYYCAAATHNKHTARDDYWGQGTQVTVSS | low polyreactivity
QVQIVESGGGLVQAGGSLRLSCAASGIIFRYYAMGWYRQAPGKERELVAAISSSGVSTYYADSVKGRFTISRDYAKNTVYLQMNSLKPEDTAVYYCAAVTTWRIDYWGQGTQVNVSS | high polyreactivity
QVQLVESGGGLVQAGGSLRLSCAASGRTFYPYAMGWYRKAPGKERELVAAITSDGSTNYADSVKGRFTISRDNAKNTVYLQMNSLKPEDTAVYYCATAGYSWVSYDYWGQGTQVTVSS | low polyreactivity
QVQLQESAGGLEQAGGSLRRICSARCNINSDASMGSYRQAPGKQREHAASTTKGSRTHDAESVKGRLTIRDNAKNTVYLQMNSLKPDDTAVCYSAVTYPYWGDYTYWGQGTQVTVSS | low polyreactivity
